Source: the RNAGym collection of RNA variant scans (doi:10.1073/pnas.2313332121)
Variants at the floor of the assay were thinned out.

B1: TPR 5TU (parent)
chain: GGAUCUUCUCGAUCUAACAAAAAAGACAAAUCUGCCACAAAGCUUGAGAGCAUCUUCGGAUGCAGAGGCGGCAGCCUUCGGUGGCGCGAUAGCGCCAACGUUCUCAACUAUGACACGCAAAACGCGUGCUCCGUUGAAUGGAGUUUAUCAUG

Variants of: B1
Experiment: polymerase ribozyme fitness, log enrichment relative to wild type (log ratio); higher = more active; in vitro selection for triplet polymerase activity
Summary of the method: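 In triplicate, a single round of in vitro selection was run on each mutant library, PCR-built and transcribed, covering one subunit of a heterodimeric triplet polymerase ribozyme. Frozen incubation at −7 °C followed annealing with a biotinylated primer, partner subunit and triplets, and extended constructs were then gel-excised, streptavidin-captured and taken through RT-PCR. Fitness is the logarithm of genotype enrichment over wild-type enrichment, from inverse-variance-weighted replicate averages of Illumina-sequenced inputs and outputs. […] only genotypes with ≥10 input reads and ≥1 read per output were kept.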

Row | Variant | polymerase ribozyme fitness (log ratio)
1 | GGAUCUUCUCGAUCUAACAAAAAAGACAAAUCUGCCACAAAGCUUGAGAGCAACUUCGGAUGCAGAGGCGGCAGCCUUCGGUCGCGCGAUAGCGCCAACGUUCUCAACUAUGACACGCAAAACGCGUGCUCCGUUGAAUGGAGUUUAUCAUG [U53A G83C] | -2.61
2 | GGAUCUUCUCGAUCUAACAAAAAAGACAAAUCUGCCACAAAGCUUGAGAGCAUGUUCGGAUGCAGAGGCGGCAGCCUUUGGUGGCGCGAUAGCCCUAACGUUCUCAACUAUGACACGCAAAACGCGUGCUCCGUUGAAUGGAGUUUAUCGUG [C54G C79U G94C C96U A150G] | ≤ -4.2
3 | GGAUCUUCUCGAUCUAACAAAAAAGACAAAUCUGCCACAAAGCUUGAGAGCCUCUUCGGAUGCAGAGGCGGCAGCCUUCGGUGGCGCGAUAGCGCCAACGUUCUCAACUAUGACAGGCAAAACGCGUGCUCCGUUGAAUGGAGUUUAUCAUG [A52C C116G] | -1.21
4 | GGAUCUUCUCGAUCUAACAAAAAAGACAAAUCUGCCACAAAGCUUGAGAGCAUCUUCGGAUGCAGAGGCGGCAGCCUUCGGUGGCGCGAUAGCGCCAACUUUCUCAACUAUGACACGCAAAACGCGUGCUCCGUUGAAUGGAGGUUAUCAUG [G100U U144G] | -3.5
5 | GGAUCUUCUCGAUCUAACAAAAAAGACAAAUCUGCCACAAAGCUGGAGAGCAUCUUUGGAUGCAGAGGCCGCAGCAUUCGGUGGCGCGAUGGAGCCAACGUUCUCAACUAUGACACGCAAAACGCGUGCUCCGUUGAAUGGAGUUUAUCAUG [U45G C57U G70C C76A A91G C93A] | ≤ -4.2
6 | GGAUCUUCUCGAUCUAACAAAAUAGACAAAUCUGCCACAAAGCUUGAGAGCAUCUUCGGAUGCAGAGGCGGCAGCGUUCGGUGGCGCGAUAGCGCCAACGUUCUCAACUAUGACACGCAAAACGCGUGCUCCGUUGAAUGGAGUUUAUCAUG [A23U C76G] | ≤ -4.2
7 | GGAUCUUCUCGAUAUAACAAAAAAGACAAAUCUGCCACAAAGCUUGAGAGCAUCUUCGGAUGCAGAGGCGGCAGCCUUCGGUGGCGCGAUAGCGCCAACGGUCUCAACUAUGACACGCAAAACGCGUGCUCCGUUGAAUGGAGUUUAUCAUG [C14A U101G] | -1.35
8 | GGAUCUUCUCGAUCUAACAAAAAAGACAAAUCUGCCACAAAGCUUGAGAGCAUCUCCGGAUGCAGAUGCGGCAGCCUUCGGUGGCGCGAUCGCGCCUACGUUCUCAACUAUGACACGCAAAAAGCGUGCUCCGUUGAAUGGAGUUUAUCAUG [U56C G67U A91C A97U C123A] | ≤ -4.2
9 | GGAUCUUCUCGAUCUUACAAAAAAGACAGUUCUGCCACAAAGCUUGAGAGCAACAUCGGAUCCAGAGGCGGCAGCCGUCGGUGGCGCGAUAGCGCCAACGUUCUCAACUAUGACAUGCAAAACGCGUGCUCCGUUGAAUGGAGUUUAUCAUG [A16U A29G A30U U53A U55A G62C U77G C116U] | ≤ -4.2
10 | GGAUCUUCUCGAUCUAACAAAAAAGACAAAUCUGCCACAAAGCGUGAGAGCAUCUUCGGAUGCAGAGGCGGCAGCCUUCGGUGGCGCGAUAGCGCCAACGUUCUCAACUAUGACACGCAAAACGCGUGCUCCGUUGAAUGGACUUUAUCAUG [U44G G143C] | ≤ -4.2
11 | GGAUCUUCUCGAUCUAACAAAAAAGACAAAUCUGCCACAAAGCUUGAGAGCAUCUUCGGAGGCAGCGGCGGCAGCCUUCGGUGGCGCGAUAGCGCCAACGUUCUCAACUAUGACACGCAAAACGCGUGCUCCCUUGAAUGGAGUUUAUCAUG [U61G A66C G133C] | ≤ -4.2
12 | GGAUCUUCUCGAUCUAACAAAAAAGACAAAUCUGCCACAAAGCUUGAGAGCAUCAUCGGAUGCAGAGGCGGCAGCCUUCGGUGGCGCGAUAGCGCCAACGUUCUCAACUAUGACACGCAAAACGCGUGCUCCGUUGAAUGGAGUCUAUCAUG [U55A U145C] | 0.505
13 | GGAUCUUCUCGAUCUCACAUAAAAGACUAAUCUGACACAAAGCUUGAGAUCAUCUUCGCAUGCAGAGGCGGCAGCCUUCGGUGACGGGAUAGCGCUAACGUUAUCAACUAUGACACGCAAAACGCGUGCUCCGUUGAAUGGAGUUUAACAUG [A16C A20U A28U C35A G50U G59C G84A C87G C96U C103A U148A] | ≤ -4.2
14 | GGAUCUUCUCGAUCUAACAAAAAAGACAAAUCUGCCACAAAGCUUGAGUGCAUCUUCAGAUGCAGAGGCGGCAGCCUUCGGUGGCGCGAUAGCGCCAACGUGCUCAACUAUGACACGCAAAUCGCGUGCUCCGUUGAAUGGAGUUUAUCAUG [A49U G58A U102G A122U] | -0.217
15 | GGAUCUUCUCGAUCUAACAAAAAAGACAAAUCUGCCACAAAGCUUGAGAGCAACUUCGGAUGCAGAGGCGGCAGCCUUCGGUGGCGCGAUAGCGCCAGCGGUCUCAACUAUGACACGCAAAACGCGUGCUCCGUUGAAUGGAGUUUAUCAUG [U53A A98G U101G] | -1.25
16 | GGAUCUUCUCGAUCUAACAAAAAAGACAAAUCUGCCACAAAGCUUGAAAGCAUCUUCGGAUGCAGAGGCGGCAGCAUUCGGUGGCGCGAUAGCCCCAACGUUCUCGACUAUGACACGCAAAACGCGAGCUCCGUUGAAUGCAGUUUAUCAUG [G48A C76A G94C A106G U127A G141C] | ≤ -4.2
17 | GGAUCUUCUCGAUCUAACAAAAAAGACAAAUCUGCCACAAAGCUUGAGAGCAUCUUCGGAUGCAGAGGCGGCAGCCUUCGGUGUCGCGAUAGCGCCAACGUUCUCAACUAUGACACGCAAAACGCGUGCUCCGUUGAUUGGAGUUUAUCAUG [G84U A138U] | ≤ -4.2
18 | GGAUCUUCUCGAUCUAACAAAAAAGACAAAUCUGCCACAAAGCUUGACAGCAUCAUCGGAUGCAGAGGCGGCAGCCUUCGGUGGCGCGAUAGCGCCAACGUUCUCAACUAUGACACGCAAAACGCGUGCUCCGUUGAAUGGAGUUUAUCAUG [G48C U55A] | -0.498
19 | GGAUCUUCUCGAUCUAACAAAAAAGACAAAUCUGCCACAAAGCUUGAGAGCAUCUUCCGAUGCAGAGGCGGCAGCCUUCGGUGGCGUGAUAGCGCCAACGUUCUCAACUAUGACACGCAAAACGCGUGCUCCGUAGAAUGGAGUUUAUCAUG [G58C C87U U135A] | -2.15
